What was measured:
[1] = molecular target: site-specific biotinylated monomeric human CD32a^H (FcγRIIa, histidine-131 variant), recombinant (human) (UniProt P12318); assay: SPR (Biacore 3000), steady state, monomeric IgG, pH 7.4
[2] = molecular target: site-specific biotinylated monomeric human CD32a^R (FcγRIIa, arginine-131 variant), recombinant (human) (UniProt P12318); assay: as above
[3] = molecular target: His-tagged soluble mouse FcRn (mFcRn), recombinant (mouse) (UniProt Q61559); assay: method not stated; neutral pH
[4] = molecular target: site-specific biotinylated monomeric human CD32a^H (FcγRIIa, histidine-131 variant), recombinant (human) (UniProt P12318); assay: SPR steady state (refers to Table 6)
[5] = molecular target: T1, His-tagged soluble human FcRn (hFcRn), recombinant (human, UniProt P55899 24-290; P61769 21-119, limits assumed); assay: bridging ELISA at pH 5.5: hFcRn/ALP-nanobody reporter complex at one concentration on captured CD32a^H without IgG
T1 construct: Made in an insect cell system 'as described previously'; also called recombinant hFcRn; hFcRn reporter complex (with ALP-conjugated hFcRn-specific nanobody)

[6] = molecular target: T2, His-tagged soluble mouse FcRn (mFcRn), recombinant (mouse, UniProt Q61559 22-290; P01887 21-119, limits assumed); assay: SPR at pH 5.5: mFcRn injected alone over CD32a^H captured on neutravidin (variant as titled on the sheet); the concentration is not printed on the sheet
T2 construct: Made in an insect cell system 'as described previously'; also called recombinant mFcRn
T2 sequence (looked up): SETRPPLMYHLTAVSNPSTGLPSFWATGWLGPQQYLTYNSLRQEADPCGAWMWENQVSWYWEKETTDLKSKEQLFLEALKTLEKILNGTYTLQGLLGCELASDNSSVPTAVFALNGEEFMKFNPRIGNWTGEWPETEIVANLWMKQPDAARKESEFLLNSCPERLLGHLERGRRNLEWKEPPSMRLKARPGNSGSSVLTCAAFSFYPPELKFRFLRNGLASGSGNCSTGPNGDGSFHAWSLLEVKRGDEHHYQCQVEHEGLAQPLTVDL
T2 sequence (b2m, looked up): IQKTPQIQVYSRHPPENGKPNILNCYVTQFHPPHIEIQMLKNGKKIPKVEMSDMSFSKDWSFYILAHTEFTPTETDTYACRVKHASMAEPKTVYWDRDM
Procedure: (§1) Recombinant C-terminus-biotinylated CD32a variants were captured on neutravidin-coated plates. Analyte(s) were then injected as indicated and specified in the material and methods. […] Recombinant C-terminus-biotinylated CD32a variants were captured on neutravidin amine-coupled CM5 sensor chips. Analyte(s) were then injected as indicated and specified in the material and methods.
(§2) The cDNAs encoding for CD32a^R and CD32a^H were subcloned into a pcDNA3.1 vector and sequences verified by DNA sequencing. […] To obtain clones with similar expression of CD32a^R or CD32a^H, transfected MDCK-II, HEK293T^H2-Kb, and RAW264.7 were processed by fluorescence-activated cell sorting (FACS; BD FACSAria II™). SPR and ELISA CD32a-IgG-FcRn binding SPR analysis was performed using a Biacore 3000™ instrument (GE Healthcare™). CM5™ sensor chips (GE Healthcare™) were coupled with neutrAvidin (Pierce™) (~1000 RU) using amine coupling chemistry, by injecting 5 g/ml in 10 mM sodium acetate, pH 4.5 (GE Healthcare™) at 25° C.).

[7] = molecular target: T1, His-tagged soluble human FcRn (hFcRn), …; assay: bridging ELISA at pH 5.5: hFcRn/ALP-nanobody reporter complex at one concentration on captured CD32a^R without IgG
[8] = molecular target: T2, His-tagged soluble mouse FcRn (mFcRn), …; assay: SPR at pH 5.5: mFcRn injected alone over CD32a^R captured on neutravidin (variant as titled on the sheet); the concentration is not printed on the sheet
Procedure: as §1, §2

T1 sequence (P55899 24-290 limits assumed, chain 1 of 2): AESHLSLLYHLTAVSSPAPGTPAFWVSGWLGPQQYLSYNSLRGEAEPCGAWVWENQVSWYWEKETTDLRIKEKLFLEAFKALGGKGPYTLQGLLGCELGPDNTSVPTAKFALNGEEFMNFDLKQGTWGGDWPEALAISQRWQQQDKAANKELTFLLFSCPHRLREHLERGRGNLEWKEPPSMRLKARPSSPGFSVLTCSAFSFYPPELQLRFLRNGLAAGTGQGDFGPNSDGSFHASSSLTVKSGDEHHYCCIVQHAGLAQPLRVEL
T1 sequence (P61769 21-119 limits assumed, chain 2 of 2): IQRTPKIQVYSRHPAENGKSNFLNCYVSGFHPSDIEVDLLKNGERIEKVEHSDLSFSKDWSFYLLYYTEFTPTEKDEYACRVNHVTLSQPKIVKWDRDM

anti-NIP chimeric IgG with wild type human IgG1 Fc (hIgG1^WT) (antibody)
Kd [1]: 1300 nM
Kd [2]: 2000 nM

anti-NIP hIgG1-I253A/H310A/H435A (hIgG1^IHH) (from UniProt P01857 1-330) (antibody)
Kd [1]: 4800 nM

anti-NIP hIgG1-M252Y/S254T/T256E/H433K/N434F (hIgG1^MST/HN) (from UniProt P01857 1-330) (antibody)
Kd [3]: 7.4 nM
decrease of binding against hIgG1^WT [4]: 50%
Kd [1]: 2800 nM

B1: site-specific biotinylated monomeric human CD32a^H (FcγRIIa, histidine-131 variant), recombinant (receptor, UniProt P12318 34-218, looked up)
chain: QAAAPPKAVLKLEPPWINVLQEDSVTLTCQGARSPESDSIQWFHNGNLIPTHTQPSYRFKANNNDSGEYTCQTGQTSLSDPVHLTVLSEWLVLQTPHLEFQEGETIMLRCHSWKDKPLVKVTFFQNGKSQKFSHLDPTFSIPQANHSHSGDYHCTGNIGYTLFSSKPVTITVQVPSMGSSSPMGI
modifications: C-terminus biotinylated
notes: Bought recombinant protein; also called CD32a-H131; C-terminus biotinylated CD32a^H
binding result [5]: no binding
binding result [6]: no binding

B2: site-specific biotinylated monomeric human CD32a^R (FcγRIIa, arginine-131 variant), recombinant (receptor, UniProt P12318 34-218, looked up)
chain: QAAAPPKAVLKLEPPWINVLQEDSVTLTCQGARSPESDSIQWFHNGNLIPTHTQPSYRFKANNNDSGEYTCQTGQTSLSDPVHLTVLSEWLVLQTPHLEFQEGETIMLRCHSWKDKPLVKVTFFQNGKSQKFSRLDPTFSIPQANHSHSGDYHCTGNIGYTLFSSKPVTITVQVPSMGSSSPMGI
modifications: C-terminus biotinylated
notes: Bought recombinant protein; The substitution is written against the histidine-131 form; also called CD32a-R131; C-terminus biotinylated CD32a^R
binding result [7]: no binding
binding result [8]: no binding

From patent US20260274961A1 (BRIGHAM AND WOMEN S HOSPITAL, published 2026)
